This assay addresses SARS-CoV nsp10 (SARS-CoV Frankfurt-1). In words: pull-down.

As to SARS-CoV nsp16 (enzyme), the % associated was determined as 100%.

Source of the values: paper PMC3102710.
